Data taken from patent publication US20140087995A1 (published 2014).
Numbered stars: 1 amine (or outer) side, 2 acyl side, 3 side chain; on linkers, the order of the positions; unused ones are H or OH. Bridge positions count the residues as written; N and C are the ends. Side chains are listed from the residue outwards. Ends that are not written are not given here. * marks the point of attachment. C20 diacid = O=C(O)CCCCCCCCCCCCCCCCCCC(=O)*; γGlu = O=C(O)[C@H](CCC(=O)[*:2])N[*:1]

T1: human amylin receptor (amylin 3(a) receptor: human calcitonin receptor coexpressed with RAMP-3) (human, UniProt P30988 25-474; O60896 24-148)
T1 sequence (looked up) 1: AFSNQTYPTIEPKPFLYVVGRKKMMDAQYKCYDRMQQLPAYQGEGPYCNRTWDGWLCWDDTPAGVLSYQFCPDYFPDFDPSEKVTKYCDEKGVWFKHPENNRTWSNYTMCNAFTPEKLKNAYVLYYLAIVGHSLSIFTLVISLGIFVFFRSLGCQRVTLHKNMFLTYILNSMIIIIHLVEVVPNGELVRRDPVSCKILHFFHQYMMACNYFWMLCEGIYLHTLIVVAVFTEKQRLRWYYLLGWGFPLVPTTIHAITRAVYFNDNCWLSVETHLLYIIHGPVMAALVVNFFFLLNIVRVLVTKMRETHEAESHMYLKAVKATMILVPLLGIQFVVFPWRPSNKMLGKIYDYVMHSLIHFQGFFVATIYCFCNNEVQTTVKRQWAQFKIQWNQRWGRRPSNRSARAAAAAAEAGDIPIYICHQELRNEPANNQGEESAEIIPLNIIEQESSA
T1 sequence (looked up) 2: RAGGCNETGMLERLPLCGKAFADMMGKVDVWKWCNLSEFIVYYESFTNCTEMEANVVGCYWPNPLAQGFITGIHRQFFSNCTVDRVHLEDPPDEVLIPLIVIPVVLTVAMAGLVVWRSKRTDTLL

T2: human calcitonin receptor (human, UniProt P30988 25-474)
T2 sequence (looked up): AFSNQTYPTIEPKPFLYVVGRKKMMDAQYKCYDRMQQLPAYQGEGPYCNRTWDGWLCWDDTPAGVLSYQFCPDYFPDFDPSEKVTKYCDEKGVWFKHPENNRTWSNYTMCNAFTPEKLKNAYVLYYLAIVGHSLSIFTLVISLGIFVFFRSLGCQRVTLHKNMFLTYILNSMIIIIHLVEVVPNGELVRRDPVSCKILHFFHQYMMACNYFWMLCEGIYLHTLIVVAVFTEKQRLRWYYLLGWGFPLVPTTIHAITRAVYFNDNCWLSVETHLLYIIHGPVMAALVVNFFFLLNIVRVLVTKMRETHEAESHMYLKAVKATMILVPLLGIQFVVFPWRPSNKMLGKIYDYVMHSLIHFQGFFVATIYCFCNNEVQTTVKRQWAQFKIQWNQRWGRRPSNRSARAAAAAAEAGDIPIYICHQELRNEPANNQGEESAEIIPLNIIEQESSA


Legend:
[1] = target: T1, human amylin receptor (amylin 3(a) …); assay: cell-based or functional assay
[2] = target: T2, human calcitonin receptor; assay: cell-based or functional assay

| Binder | hAmylin-R funct. EC50 (pM) [1] [pM] | hCTR funct. EC50 (pM) [2] [pM] | Ratio hCT/hAmylin funct. [2] |
| --- | --- | --- | --- |
| K([γGlu-C20 diacid])CNTATCATQRLARFLRHSSPNFGAIPSSTNVGSNTY-NH2 (disulfide 2-7; N-terminus assumed; SMILES CC[C@H](C)[C@H](NC(=O)[C@H](C)NC(=O)CNC(=O)[C@H](Cc1ccccc1)NC(=O)[C@H](CC(N)=O)NC(=O)[C@@H]1CCCN1C(=O)[C@H](CO)NC(=O)[C@H](CO)NC(=O)[C@H](Cc1c[nH]cn1)NC(=O)[C@H](CCCNC(=N)N)NC(=O)[C@H](CC(C)C)NC(=O)[C@H](Cc1ccccc1)NC(=O)[C@H](CCCNC(=N)N)NC(=O)[C@H](C)NC(=O)[C@H](CC(C)C)NC(=O)[C@H](CCCNC(=N)N)NC(=O)[C@H](CCC(N)=O)NC(=O)[C@@H](NC(=O)[C@H](C)NC(=O)[C@@H]1CSSC[C@H](NC(=O)[C@@H](N)CCCCNC(=O)CC[C@H](NC(=O)CCCCCCCCCCCCCCCCCCC(=O)O)C(=O)O)C(=O)N[C@@H](CC(N)=O)C(=O)N[C@@H]([C@@H](C)O)C(=O)N[C@@H](C)C(=O)N[C@@H]([C@@H](C)O)C(=O)N1)[C@@H](C)O)C(=O)N1CCC[C@H]1C(=O)N[C@@H](CO)C(=O)N[C@@H](CO)C(=O)N[C@H](C(=O)N[C@@H](CC(N)=O)C(=O)N[C@H](C(=O)NCC(=O)N[C@@H](CO)C(=O)N[C@@H](CC(N)=O)C(=O)N[C@H](C(=O)N[C@@H](Cc1ccc(O)cc1)C(N)=O)[C@@H](C)O)C(C)C)[C@@H](C)O, also called compound 83) [N^ε1-[(4S)-4-carboxy-4-(19-carboxynonadecanoylamino)butanoyl]-[Arg14,Arg17,Pro21,Pro27]-h-amylin] | 405 | 16800 |  |
| K([γGlu-C20 diacid])CNTATCATQRLANFLRHSSPNFGAIPSSTNVGRNTY-NH2 (disulfide 2-7; N-terminus assumed; SMILES CC[C@H](C)[C@H](NC(=O)[C@H](C)NC(=O)CNC(=O)[C@H](Cc1ccccc1)NC(=O)[C@H](CC(N)=O)NC(=O)[C@@H]1CCCN1C(=O)[C@H](CO)NC(=O)[C@H](CO)NC(=O)[C@H](Cc1c[nH]cn1)NC(=O)[C@H](CCCNC(=N)N)NC(=O)[C@H](CC(C)C)NC(=O)[C@H](Cc1ccccc1)NC(=O)[C@H](CC(N)=O)NC(=O)[C@H](C)NC(=O)[C@H](CC(C)C)NC(=O)[C@H](CCCNC(=N)N)NC(=O)[C@H](CCC(N)=O)NC(=O)[C@@H](NC(=O)[C@H](C)NC(=O)[C@@H]1CSSC[C@H](NC(=O)[C@@H](N)CCCCNC(=O)CC[C@H](NC(=O)CCCCCCCCCCCCCCCCCCC(=O)O)C(=O)O)C(=O)N[C@@H](CC(N)=O)C(=O)N[C@@H]([C@@H](C)O)C(=O)N[C@@H](C)C(=O)N[C@@H]([C@@H](C)O)C(=O)N1)[C@@H](C)O)C(=O)N1CCC[C@H]1C(=O)N[C@@H](CO)C(=O)N[C@@H](CO)C(=O)N[C@H](C(=O)N[C@@H](CC(N)=O)C(=O)N[C@H](C(=O)NCC(=O)N[C@@H](CCCNC(=N)N)C(=O)N[C@@H](CC(N)=O)C(=O)N[C@H](C(=O)N[C@@H](Cc1ccc(O)cc1)C(N)=O)[C@@H](C)O)C(C)C)[C@@H](C)O, also called compound 79) [N^ε1-[(4S)-4-carboxy-4-(19-carboxynonadecanoylamino)butanoyl]-[Arg17,Pro21,Pro27,Arg34]-h-amylin] | 161 | 3940 |  |
| K([γGlu-C20 diacid])CNTATCATQRLAEFLRHSSPNFGAIPSSTNVGPHTY-NH2 (disulfide 2-7) | 101 | 1450 | 14.4 |
| K([γGlu-C20 diacid])CNTATCATQRLAEFLRHSSPNFGAIPSSTNVGPRTY-NH2 (disulfide 2-7; N-terminus assumed; SMILES CC[C@H](C)[C@H](NC(=O)[C@H](C)NC(=O)CNC(=O)[C@H](Cc1ccccc1)NC(=O)[C@H](CC(N)=O)NC(=O)[C@@H]1CCCN1C(=O)[C@H](CO)NC(=O)[C@H](CO)NC(=O)[C@H](Cc1c[nH]cn1)NC(=O)[C@H](CCCNC(=N)N)NC(=O)[C@H](CC(C)C)NC(=O)[C@H](Cc1ccccc1)NC(=O)[C@H](CCC(=O)O)NC(=O)[C@H](C)NC(=O)[C@H](CC(C)C)NC(=O)[C@H](CCCNC(=N)N)NC(=O)[C@H](CCC(N)=O)NC(=O)[C@@H](NC(=O)[C@H](C)NC(=O)[C@@H]1CSSC[C@H](NC(=O)[C@@H](N)CCCCNC(=O)CC[C@H](NC(=O)CCCCCCCCCCCCCCCCCCC(=O)O)C(=O)O)C(=O)N[C@@H](CC(N)=O)C(=O)N[C@@H]([C@@H](C)O)C(=O)N[C@@H](C)C(=O)N[C@@H]([C@@H](C)O)C(=O)N1)[C@@H](C)O)C(=O)N1CCC[C@H]1C(=O)N[C@@H](CO)C(=O)N[C@@H](CO)C(=O)N[C@H](C(=O)N[C@@H](CC(N)=O)C(=O)N[C@H](C(=O)NCC(=O)N1CCC[C@H]1C(=O)N[C@@H](CCCNC(=N)N)C(=O)N[C@H](C(=O)N[C@@H](Cc1ccc(O)cc1)C(N)=O)[C@@H](C)O)C(C)C)[C@@H](C)O) | 376 | 6380 | 17 |

More lines, now with the values ahead:

| hAmylin-R funct. EC50 (pM) [1] [pM] | hCTR funct. EC50 (pM) [2] [pM] | Ratio hCT/hAmylin funct. [2] | Binder |
| --- | --- | --- | --- |
| 146 | 3880 |  | K([γGlu-C20 diacid])CNTATCATQRLAHFLRHSSPNFGAIPSSTNVGRNTY-NH2 (disulfide 2-7; N-terminus assumed; SMILES CC[C@H](C)[C@H](NC(=O)[C@H](C)NC(=O)CNC(=O)[C@H](Cc1ccccc1)NC(=O)[C@H](CC(N)=O)NC(=O)[C@@H]1CCCN1C(=O)[C@H](CO)NC(=O)[C@H](CO)NC(=O)[C@H](Cc1c[nH]cn1)NC(=O)[C@H](CCCNC(=N)N)NC(=O)[C@H](CC(C)C)NC(=O)[C@H](Cc1ccccc1)NC(=O)[C@H](Cc1c[nH]cn1)NC(=O)[C@H](C)NC(=O)[C@H](CC(C)C)NC(=O)[C@H](CCCNC(=N)N)NC(=O)[C@H](CCC(N)=O)NC(=O)[C@@H](NC(=O)[C@H](C)NC(=O)[C@@H]1CSSC[C@H](NC(=O)[C@@H](N)CCCCNC(=O)CC[C@H](NC(=O)CCCCCCCCCCCCCCCCCCC(=O)O)C(=O)O)C(=O)N[C@@H](CC(N)=O)C(=O)N[C@@H]([C@@H](C)O)C(=O)N[C@@H](C)C(=O)N[C@@H]([C@@H](C)O)C(=O)N1)[C@@H](C)O)C(=O)N1CCC[C@H]1C(=O)N[C@@H](CO)C(=O)N[C@@H](CO)C(=O)N[C@H](C(=O)N[C@@H](CC(N)=O)C(=O)N[C@H](C(=O)NCC(=O)N[C@@H](CCCNC(=N)N)C(=O)N[C@@H](CC(N)=O)C(=O)N[C@H](C(=O)N[C@@H](Cc1ccc(O)cc1)C(N)=O)[C@@H](C)O)C(C)C)[C@@H](C)O, also called compound 85) |
| 425 | 5580 | 13.1 | K([γGlu-C20 diacid])CNTATCATQRLAEFLRHSSPNFGAIPSSTNVGSHTY-NH2 (disulfide 2-7; N-terminus assumed; SMILES CC[C@H](C)[C@H](NC(=O)[C@H](C)NC(=O)CNC(=O)[C@H](Cc1ccccc1)NC(=O)[C@H](CC(N)=O)NC(=O)[C@@H]1CCCN1C(=O)[C@H](CO)NC(=O)[C@H](CO)NC(=O)[C@H](Cc1c[nH]cn1)NC(=O)[C@H](CCCNC(=N)N)NC(=O)[C@H](CC(C)C)NC(=O)[C@H](Cc1ccccc1)NC(=O)[C@H](CCC(=O)O)NC(=O)[C@H](C)NC(=O)[C@H](CC(C)C)NC(=O)[C@H](CCCNC(=N)N)NC(=O)[C@H](CCC(N)=O)NC(=O)[C@@H](NC(=O)[C@H](C)NC(=O)[C@@H]1CSSC[C@H](NC(=O)[C@@H](N)CCCCNC(=O)CC[C@H](NC(=O)CCCCCCCCCCCCCCCCCCC(=O)O)C(=O)O)C(=O)N[C@@H](CC(N)=O)C(=O)N[C@@H]([C@@H](C)O)C(=O)N[C@@H](C)C(=O)N[C@@H]([C@@H](C)O)C(=O)N1)[C@@H](C)O)C(=O)N1CCC[C@H]1C(=O)N[C@@H](CO)C(=O)N[C@@H](CO)C(=O)N[C@H](C(=O)N[C@@H](CC(N)=O)C(=O)N[C@H](C(=O)NCC(=O)N[C@@H](CO)C(=O)N[C@@H](Cc1c[nH]cn1)C(=O)N[C@H](C(=O)N[C@@H](Cc1ccc(O)cc1)C(N)=O)[C@@H](C)O)C(C)C)[C@@H](C)O) |
| 146 | 3640 | 24.9 | K([γGlu-C20 diacid])CNTATCATQRLADFLRHSSPNFGAIPSSTNVGPRTY-NH2 (disulfide 2-7; N-terminus assumed; SMILES CC[C@H](C)[C@H](NC(=O)[C@H](C)NC(=O)CNC(=O)[C@H](Cc1ccccc1)NC(=O)[C@H](CC(N)=O)NC(=O)[C@@H]1CCCN1C(=O)[C@H](CO)NC(=O)[C@H](CO)NC(=O)[C@H](Cc1c[nH]cn1)NC(=O)[C@H](CCCNC(=N)N)NC(=O)[C@H](CC(C)C)NC(=O)[C@H](Cc1ccccc1)NC(=O)[C@H](CC(=O)O)NC(=O)[C@H](C)NC(=O)[C@H](CC(C)C)NC(=O)[C@H](CCCNC(=N)N)NC(=O)[C@H](CCC(N)=O)NC(=O)[C@@H](NC(=O)[C@H](C)NC(=O)[C@@H]1CSSC[C@H](NC(=O)[C@@H](N)CCCCNC(=O)CC[C@H](NC(=O)CCCCCCCCCCCCCCCCCCC(=O)O)C(=O)O)C(=O)N[C@@H](CC(N)=O)C(=O)N[C@@H]([C@@H](C)O)C(=O)N[C@@H](C)C(=O)N[C@@H]([C@@H](C)O)C(=O)N1)[C@@H](C)O)C(=O)N1CCC[C@H]1C(=O)N[C@@H](CO)C(=O)N[C@@H](CO)C(=O)N[C@H](C(=O)N[C@@H](CC(N)=O)C(=O)N[C@H](C(=O)NCC(=O)N1CCC[C@H]1C(=O)N[C@@H](CCCNC(=N)N)C(=O)N[C@H](C(=O)N[C@@H](Cc1ccc(O)cc1)C(N)=O)[C@@H](C)O)C(C)C)[C@@H](C)O) |
